Measurements from publication PMC11082178.

Target: CRF01_AE Env consensus with redesigned HV loops, version 1 (shortest V1HV, without the 'IGNITD' motif), Env on pseudovirus (HIV-1 CRF01_AE (consensus))

10-1074 (antibody)
neutralisation of Env pseudovirus in TZM-bl cells, IC50: 0.544 µg/mL
